From paper PMC2683335 (The Journal of biological chemistry, 2008)

Key:
[1] = molecular target: MthMCM R137A mutant (Methanothermobacter thermautotrophicus); assay: negative-stain electron microscopy
[2] = molecular target: MthMCM RR137,160AA double mutant (Methanothermobacter thermautotrophicus); assay: AUC
[3] = molecular target: the molecule itself; assay: SEC + other: sucrose gradient sedimentation
[4] = molecular target: the molecule itself; assay: AUC

MthMCM R137A mutant (natural protein)
stoichiometry N [1]: 14 subunits

MthMCM RR137,160AA double mutant (natural protein)
stoichiometry N [2]: 7 subunits

B1: Methanothermobacter thermautotrophicus MCM (MthMCM), wild type (natural protein, UniProt O27798 1-666, looked up)
chain: MMKTVDKSKTLTKFEEFFSLQDYKDRVFEAIEKYPNVRSIEVDYLDLEMFDPDLADLLIEKPDDVIRAAQQAIRNIDRLRKNVDLNIRFSGISNVIPLRELRSKFIGKFVAVDGIVRKTDEIRPRIVKAVFECRGCMRHHAVTQSTNMITEPSLCSECGGRSFRLLQDESEFLDTQTLKLQEPLENLSGGEQPRQITVVLEDDLVDTLTPGDIVRVTGTLRTVRDERTKRFKNFIYGNYTEFLEQEFEELQISEEDEEKIKELAGDPNIYEKIIRSTAPSIHGYREVKEAIALQLFGGTGKELDDKTRLRGDIHILIVGDPGIGKSQMLKYVSKLAPRGIYTSGKGTSGVGLTAAAVRDEFGGWSLEAGALVLGDKGNVCVDELDKMREEDRSAIHEALEQQTISIAKAGIMATLNSRCSVLAAANPKFGRFDSYKSIAEQIDLPSTILSRFDLIFVVEDKPDEEKDRELARHILKTHKEDHMPFEIDPELLRKYIAYARKNVRPVLTDEAMQVLEDFYVSMRASAADEDSPVPITARQLEALVRLSEASAKIKLKEHVEAEDARKAIKLSQACLKQVGYDPETGKIDIDKVEGRTPKSERDKFRLLLELIKEYEDDYGGRAPTNILITEMMDRYNVSEEKVEELIRILKDKGAIFEPARGYLKIV
stoichiometry N [3]: 11.6 monomers | stoichiometry N [4]: 12.2 subunits/complex
